Source: paper PMC5397151 (Nucleic Acids Research, 2017)
Each block holds one molecule with its values, some of them ahead of it.

Experiments:
pyRbkR = test: HPLC end-point riboflavin kinase assay, FMN detected at […] nm; type: biochemical, Pyrobaculum yellowstonensis; conditions: read-out: apparent Km; saturating CTP (0.2 mM), 5 mM MgCl2, 0.1 M NaCl, HEPES pH 8, 60 °C
crystal structure = target: the molecule itself; test: crystal structure
taRbkR [1] = target: T1, taRbkR (Thermoplasma acidophilum, UniProt Q9HJA6 1-220); test: X-ray crystallography 1.85 A
T1 sequence: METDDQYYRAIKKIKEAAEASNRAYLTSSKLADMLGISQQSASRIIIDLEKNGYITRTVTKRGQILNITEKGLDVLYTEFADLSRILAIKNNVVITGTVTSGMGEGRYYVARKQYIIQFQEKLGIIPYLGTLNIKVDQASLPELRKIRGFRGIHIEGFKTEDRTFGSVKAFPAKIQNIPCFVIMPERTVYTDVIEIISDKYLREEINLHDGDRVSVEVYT

taRbkR [2] = target: T1, taRbkR; test: fluorescence polarization

Km (pyRbkR): 73 ± 26 µM
Molecule: Cc1cc2nc3c(=O)[nH]c(=O)nc-3n(C[C@H](O)[C@H](O)[C@H](O)CO)c2cc1C [riboflavin]

B1: RbkR protein from Thermoplasma acidophilum (bifunctional riboflavin kinase/regulator) (natural protein)
chain: ETDDQYYRAIKKIKEAAEASNRAYLTSSKLADMLGISQQSASRIIIDLEKNGYITRTVTKRGQILNITEKGLDVLYTEFADLSRILAIKNNVVITGTVTSGMGEGRYYVARKQYIIQFQEKLGIIPYLGTLNIKVDQASLPELRKIRGFRGIHIEGFKTEDRTFGSVKAFPAKIQNIPCFVIMPERTVYTDVIEIISDKYLREEINLHDGDRVSVEVYT
stoichiometry N (crystal structure): 2

B2: ta ribT operator crystal duplex (dsDNA)
DNA 1: ATTACTAATTCACGAGTAA
DNA 2: TTTACTCGTGAATTAGTAA
binding result (taRbkR [1]): binds

B3: ta ribT 35 bp (dsDNA)
DNA 1: TATGCTACTAATTCACGAGTAATTACTCAAATATT
DNA 2: AATATTTGAGTAATTACTCGTGAATTAGTAGCATA
apparent K (half saturation) (taRbkR [2]): ~16 nM
